According to PMC5486051, “BrWRKY65, a WRKY Transcription Factor, Is Involved in Regulating Three Leaf Senescence-Associated Genes in Chinese Flowering Cabbage”:

Experiments:
GST-BrWRKY65 [1] = biological target: T1, GST-BrWRKY65 (Brassica rapa var. parachinensis …, UniProt A0ACM8RC22 1-261); experiment: EMSA; shift abolished dose-dependently by unlabeled self competitor (100x, 1000x); LightShift Chemiluminescent EMSA Kit; native polyacrylamide gel (Figure 5 legend; Methods says SDS-PAGE); buffer, salt, pH and temperature not stated; conditions: protein: recombinant; tags: GST (N-terminal, pGEX-4T-1); label: 5' biotin
GST-BrWRKY65 [2] = biological target: T1, GST-BrWRKY65; experiment: competition; unlabeled mutant, 100-1000x excess over N1; LightShift Chemiluminescent EMSA Kit; native polyacrylamide gel (Figure 5 legend; Methods says SDS-PAGE); buffer, salt, pH and temperature not stated; conditions: protein: recombinant; tags: GST (N-terminal, pGEX-4T-1); label: unlabeled
GST-BrWRKY65 [3] = biological target: T1, GST-BrWRKY65; experiment: competition; unlabeled mutant, 100-1000x excess over N2; LightShift Chemiluminescent EMSA Kit; native polyacrylamide gel (Figure 5 legend; Methods says SDS-PAGE); buffer, salt, pH and temperature not stated; conditions: protein: recombinant; tags: GST (N-terminal, pGEX-4T-1); label: unlabeled
GST-BrWRKY65 [4] = biological target: T1, GST-BrWRKY65; experiment: competition; unlabeled mutant, 100-1000x excess over N3; LightShift Chemiluminescent EMSA Kit; native polyacrylamide gel (Figure 5 legend; Methods says SDS-PAGE); buffer, salt, pH and temperature not stated; conditions: protein: recombinant; tags: GST (N-terminal, pGEX-4T-1); label: unlabeled

T1 sequence (A0ACM8RC22 entry or part of it): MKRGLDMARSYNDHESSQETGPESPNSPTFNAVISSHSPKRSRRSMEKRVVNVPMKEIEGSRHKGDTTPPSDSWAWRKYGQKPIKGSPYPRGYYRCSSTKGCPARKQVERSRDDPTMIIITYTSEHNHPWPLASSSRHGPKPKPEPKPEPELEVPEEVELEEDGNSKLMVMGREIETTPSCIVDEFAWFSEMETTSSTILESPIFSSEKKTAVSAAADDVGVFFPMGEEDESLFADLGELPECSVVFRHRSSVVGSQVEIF

B1: BrNYC1 promoter W-box probe (dsDNA)
DNA 1: GATCGCCAGATTGCAGTGACGGTTGACTTGAATAAAGAAAAATGAAAAAA
DNA 2: TTTTTTCATTTTTCTTTATTCAAGTCAACCGTCACTGCAATCTGGCGATC
Question: Does B1 bind (GST-BrWRKY65 [1])?
Answer: binds

B2: BrSGR1 promoter W-box probe (dsDNA)
DNA 1: TTTCACTCGTATCGTAAGATTGTTGACTCCAACACGCAAACAACAAAAAC
DNA 2: GTTTTTGTTGTTTGCGTGTTGGAGTCAACAATCTTACGATACGAGTGAAA
Question: Does B2 bind (GST-BrWRKY65 [1])?
Answer: binds

B3: BrDIN1 promoter W-box probe (dsDNA)
DNA 1: CGAGAGACCTGATTAAGAACATCTGACTTCAATTAAACCAATCACACTAC
DNA 2: GTAGTGTGATTGGTTTAATTGAAGTCAGATGTTCTTAATCAGGTCTCTCG
Question: Does B3 bind (GST-BrWRKY65 [1])?
Answer: binds

B4: BrNYC1 mutant W-box competitor (dsDNA)
DNA 1: GATCGCCAGATTGCAGTGACGGAAAAAATGAATAAAGAAAAATGAAAAAA
DNA 2: TTTTTTCATTTTTCTTTATTCATTTTTTCCGTCACTGCAATCTGGCGATC
Question: Does B4 bind (GST-BrWRKY65 [2])?
Answer: no binding

B5: BrSGR1 mutant W-box competitor (dsDNA)
DNA 1: TTTCACTCGTATCGTAAGATTGAAAAAACCAACACGCAAACAACAAAAAC
DNA 2: GTTTTTGTTGTTTGCGTGTTGGTTTTTTCAATCTTACGATACGAGTGAAA
Question: Does B5 bind (GST-BrWRKY65 [3])?
Answer: no binding

B6: BrDIN1 mutant W-box competitor (dsDNA)
DNA 1: CGAGAGACCTGATTAAGAACATAAAAAATCAATTAAACCAATCACACTAC
DNA 2: GTAGTGTGATTGGTTTAATTGATTTTTTATGTTCTTAATCAGGTCTCTCG
Question: Does B6 bind (GST-BrWRKY65 [4])?
Answer: no binding
